Experimental data as given in patent US20050053613A1 (MOUNT SINAI SCHOOL OF MEDICINE, published 2005).

B1: CEA liberated by PIPLC from CEA-GFP transfected 293T cells (other, UniProt P06731 35-685, looked up)
chain: KLTIESTPFNVAEGKEVLLLVHNLPQHLFGYSWYKGERVDGNRQIIGYVIGTQQATPGPAYSGREIIYPNASLLIQNIIQNDTGFYTLHVIKSDLVNEEATGQFRVYPELPKPSISSNNSKPVEDKDAVAFTCEPETQDATYLWWVNNQSLPVSPRLQLSNGNRTLTLFNVTRNDTASYKCETQNPVSARRSDSVILNVLYGPDAPTISPLNTSYRSGENLNLSCHAASNPPAQYSWFVNGTFQQSTQELFIPNITVNNSGSYTCQAHNSDTGLNRTTVTTITVYAEPPKPFITSNNSNPVEDEDAVALTCEPEIQNTTYLWWVNNQSLPVSPRLQLSNDNRTLTLLSVTRNDVGPYECGIQNELSVDHSDPVILNVLYGPDDPTISPSYTYYRPGVNLSLSCHAASNPPAQYSWLIDGNIQQHTQELFISNITEKNSGLYTCQANNSASGHSRTTVKTITVSAELPKPSISSNNSKPVEDKDAVAFTCEPEAQNTTYLWWVNGQSLPVSPRLQLSNGNRTLTLFNVTRNDARAYVCGIQNSVSANRSDPVTLDVLYGPDTPIISPPDSSYLSGANLNLSCHSASNPSPQYSWRINGIPQQHTQVLFIAKITPNNNGTYACFVSNLATGRNNSIVKSITVSASGTSPGLSA
notes: Soluble form in the supernatant of PIPLC treated transfectants; also called B9 reactive material
B2: human CD8α expressed on murine T cell hybridoma (3G8) (receptor)
chain: not shown
notes: whole, on cells; also called CD8α chains

Key:
[1] = target: T1, human CD4 expressed on murine T cell hybridoma (3G4) (human, UniProt P01730 26-458); assay: absorption of PIPLC-released CEA on transfected hybridoma cells, immunoblot with mAb B9
T1 construct: whole, on cells
Experimental: (§1) CEA exists as a GPI anchored glycoprotein on the surface of IECs. This molecule can be cleaved using the enzyme PIPLC. […] Absorption of CEA by either CD4 or CD8 was determined by immunoblotting with mAb B9. […] These findings are consistent with functional properties previously ascribed to gp180.

[2] = target: B1; assay: absorption on transfected hybridoma cells, immunoblot with mAb B9
Experimental: as §1

| binding result [1] | binding result [2] | Binder |
| --- | --- | --- |
| no binding | – | B1 |
| – | binds | B2 |
